In publication PMC6339873 (Frontiers in Microbiology, 2018):

What was measured:
[1] = target: st_YfdX(YI), S. Typhi YfdX with Y100A and I137A (Salmonella enterica serovar Typhi); test: […]; pH 6.0; […] (pH 6.0), 200 mM NaCl, 1 mM DTT, […]
[2] = target: st_YfdX(YI), S. Typhi YfdX with Y100A and I137A (Salmonella enterica serovar Typhi); test: […]; pH 7.5; […] (pH 7.5), 200 mM NaCl, 1 mM DTT, […]
[3] = target: the molecule itself; test: SEC-MALS; pH 10.0 (kp_YfdX, Supplementary Figure S1)
[4] = target: the molecule itself; test: SEC-MALS; Superdex 75 Increase 10/300 GL; pH 6.0; st_YfdX proteins in 20 mM Bis-Tris-HCl (pH 6.0), 200 mM NaCl, 1 mM DTT, wild type at 10 and 30 mg/mL, mutants at 30 mg/mL; buffer and concentration of kp_YfdX not told
[5] = target: the molecule itself; test: […]; pH 7.5; […] (pH 7.5), 200 mM NaCl, 1 mM DTT, […]
[6] = target: the molecule itself; test: crystal structure; sitting-drop vapor diffusion at 18°C; crystal I and II at pH 4.6 (F222), crystal III at pH 5.0 (P222); crystals II and III from protein with 1 mM ZnCl2; the tetramer is seen in the crystal lattice

“st_YfdX(YI), S. Typhi YfdX with Y100A and I137A (domain or fragment)” showed a stoichiometry N [1] of 2 and a stoichiometry N [2] of 2.

B1: K. pneumoniae YfdX (kp_YfdX), recombinant (natural protein)
chain: ATDSATAAPAAAATTQVQKEAADVLQVAVQGANAMRDIQFARLALFHGQPDSAKKLTDDAAALLAADDASWAKFVKTDAKAKMIADRYVIINASIALSEDYVATPEKESAIQSANEKLAKGDQKGAIDTLRLAGIGVIENQYLMPLNQTRKAVAQSQELLKAGKYYEANLVLKGAEEGIVVDSEMLVAGN
notes: YfdX of Klebsiella pneumoniae; Cloned into pET21a; PDB 3DZA (cited) holds a crystal structure of the same protein
For B1, the “stoichiometry N” value [3] was 2 and the “stoichiometry N” value [4] was 4.

B2: S. Typhi YfdX, residues 10-186 (st_YfdX), wild type (domain or fragment)
chain: MAATNMTDNVTLNNDKISGQAWQAMRDIGMSRFELFNGRTQKAEQLAAQAEKLLNDDSTDWNLYVKSDKKAPVEGDHYIRINSSITVAEDYLPAGQKNDAINKANQKMKEGDKKGTIEALKLAGVSVIENQELIPLQQTRKDVTTALSLMNEGKYYQAGLLLKSAQDGIVVDSQSVQLEHHHHHH
For B2, the “stoichiometry N” value [5] was 2 and the “stoichiometry N” value [6] was 4.
